Reference: patent publication US7183387
Like-named read-outs stand apart in the source and are kept apart here. Blank lines part the entries; values can stand above or below the substance they belong to.

Tests used:
[1] = molecular target: human C1q (Quidel) (human) (UniProt P02745); assay: C1q ELISA
[2] = molecular target: human C1q (Quidel) (human) (UniProt P02745); assay: cell-based or functional assay
[3] = molecular target: CD20 antigen on WIL2-S cells (UniProt P11836); assay: flow cytometry, WIL2-S cells
Chain of CD20 antigen on WIL2-S cells (P11836 whole entry): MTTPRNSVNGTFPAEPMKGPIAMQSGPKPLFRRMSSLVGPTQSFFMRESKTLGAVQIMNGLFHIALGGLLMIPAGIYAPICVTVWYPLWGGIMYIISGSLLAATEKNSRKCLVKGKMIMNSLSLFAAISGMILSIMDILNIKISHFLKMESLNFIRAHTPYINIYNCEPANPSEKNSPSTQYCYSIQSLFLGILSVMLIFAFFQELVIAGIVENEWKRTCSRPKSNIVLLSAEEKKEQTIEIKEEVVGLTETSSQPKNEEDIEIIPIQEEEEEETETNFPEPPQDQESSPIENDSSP

[4] = molecular target: human C1q (Quidel) (human) (UniProt P02745); assay: C1q ELISA; remark: listed apart in the source
[5] = molecular target: human C1q (Quidel) (human) (UniProt P02745); assay: C1q ELISA; remark: listed apart in the source
[6] = molecular target: human FcγRIIIA-F158 α subunit extracellular domain-6His-GST fusion (human) (UniProt P08637); assay: ELISA, IgG:IgE hexamers on receptor-GST
[7] = molecular target: human FcγRIIB α subunit extracellular domain-6His-GST fusion (human) (UniProt P31994); assay: ELISA, IgG:IgE hexamers on receptor-GST
Chain of human FcγRIIB α subunit extracellular domain-6His-GST fusion (human) (P31994 other isoform, or with tags, fused parts or gaps, form in doubt): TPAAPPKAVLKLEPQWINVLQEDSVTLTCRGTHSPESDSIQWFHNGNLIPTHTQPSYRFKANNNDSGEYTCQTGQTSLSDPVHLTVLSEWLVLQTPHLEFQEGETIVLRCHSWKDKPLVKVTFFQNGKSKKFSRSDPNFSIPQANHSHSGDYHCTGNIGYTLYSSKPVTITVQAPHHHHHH

[8] = molecular target: human FcγRIIA-R131 α subunit extracellular domain-6His-GST fusion (human) (UniProt P12318); assay: ELISA, IgG:IgE hexamers on receptor-GST
Chain of human FcγRIIA-R131 α subunit extracellular domain-6His-GST fusion (human) (P12318 other isoform, or with tags, fused parts or gaps, form in doubt): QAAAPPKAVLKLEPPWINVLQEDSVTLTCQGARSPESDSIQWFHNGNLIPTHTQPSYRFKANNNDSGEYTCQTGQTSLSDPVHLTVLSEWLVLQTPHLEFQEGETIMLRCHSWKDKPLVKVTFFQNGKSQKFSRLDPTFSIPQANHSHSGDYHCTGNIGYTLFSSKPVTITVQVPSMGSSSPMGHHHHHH

[9] = molecular target: human FcγRIA α subunit extracellular domain-His6-GST fusion (human) (UniProt P12314); assay: FcγRI ELISA and THP-1 cells, averaged
Chain of human FcγRIA α subunit extracellular domain-His6-GST fusion (human) (P12314 other isoform, or with tags, fused parts or gaps): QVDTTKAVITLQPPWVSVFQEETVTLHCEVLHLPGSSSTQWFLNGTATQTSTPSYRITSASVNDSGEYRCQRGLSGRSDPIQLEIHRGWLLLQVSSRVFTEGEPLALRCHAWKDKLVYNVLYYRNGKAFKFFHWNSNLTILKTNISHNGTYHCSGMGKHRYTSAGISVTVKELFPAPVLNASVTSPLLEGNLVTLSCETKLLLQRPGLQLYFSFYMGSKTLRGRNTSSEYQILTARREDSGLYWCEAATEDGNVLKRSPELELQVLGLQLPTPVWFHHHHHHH

[10] = molecular target: human FcγRIIA-Arg131 α subunit extracellular domain-His6-GST fusion (human) (UniProt P12318); assay: hexamer ELISA
Chain of human FcγRIIA-Arg131 α subunit extracellular domain-His6-GST fusion (human) (P12318 other isoform, or with tags, fused parts or gaps): as the sequence (P12318 other isoform, or with tags, fused parts or gaps, form in doubt) above

[11] = molecular target: human neonatal Fc receptor (FcRn), biotinylated (human) (UniProt P55899); assay: FcRn ELISA, pH 6.0
[12] = molecular target: human FcγRIIB α subunit extracellular domain-His6-GST fusion (human) (UniProt P31994); assay: immune complex ELISA, E27 background
Chain of human FcγRIIB α subunit extracellular domain-His6-GST fusion (human) (P31994 other isoform, or with tags, fused parts or gaps): as the sequence (P31994 other isoform, or with tags, fused parts or gaps, form in doubt) above

[13] = molecular target: human FcγRIIA-R131 α subunit extracellular domain-His6-GST fusion (human) (UniProt P12318); assay: ELISA, IgG:IgE hexamer on coated FcγRIIA-R131-GST; value carried over from Table 6, 7 or 8
Chain of human FcγRIIA-R131 α subunit extracellular domain-His6-GST fusion (human) (P12318 other isoform, or with tags, fused parts or gaps, form in doubt): as the sequence (P12318 other isoform, or with tags, fused parts or gaps, form in doubt) above

[14] = molecular target: human FcγRIIA-R131 α subunit extracellular domain-His6-GST fusion (human) (UniProt P12318); assay: ELISA, IgG complex, receptor coated
[15] = molecular target: human FcγRIIIA-Phe158 on cells (CHO cells stably transfected with α- and γ-chains; NK cells of Phe158/Phe158 donors) (human) (UniProt P08637); assay: cell-based or functional assay
Chain of human FcγRIIIA-Phe158 on cells (CHO cells stably transfected with α- and γ-chains; NK cells of Phe158/Phe158 donors) (human) (P08637 17-254, chain 1 of 2): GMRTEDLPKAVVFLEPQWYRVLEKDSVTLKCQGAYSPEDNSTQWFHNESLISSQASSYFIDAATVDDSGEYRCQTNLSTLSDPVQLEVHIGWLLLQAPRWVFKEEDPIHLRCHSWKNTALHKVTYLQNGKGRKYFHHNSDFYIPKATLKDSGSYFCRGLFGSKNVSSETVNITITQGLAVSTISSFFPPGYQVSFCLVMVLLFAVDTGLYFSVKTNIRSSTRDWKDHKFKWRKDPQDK
Chain of human FcγRIIIA-Phe158 on cells (CHO cells stably transfected with α- and γ-chains; NK cells of Phe158/Phe158 donors) (human) (P30273 19-86, chain 2 of 2, further chain): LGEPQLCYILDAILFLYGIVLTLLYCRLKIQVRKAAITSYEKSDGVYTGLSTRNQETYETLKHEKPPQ

Chain of human C1q (Quidel) (human) (P02745 23-245, chain 1 of 3): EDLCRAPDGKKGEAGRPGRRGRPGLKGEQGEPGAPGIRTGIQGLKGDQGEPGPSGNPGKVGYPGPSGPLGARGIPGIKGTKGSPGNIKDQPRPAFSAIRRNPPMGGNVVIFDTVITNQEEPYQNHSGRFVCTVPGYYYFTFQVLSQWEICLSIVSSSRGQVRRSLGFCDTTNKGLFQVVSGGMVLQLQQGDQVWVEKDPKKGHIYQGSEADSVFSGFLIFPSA
Chain of human C1q (Quidel) (human) (P02746 28-253, chain 2 of 3, further chain): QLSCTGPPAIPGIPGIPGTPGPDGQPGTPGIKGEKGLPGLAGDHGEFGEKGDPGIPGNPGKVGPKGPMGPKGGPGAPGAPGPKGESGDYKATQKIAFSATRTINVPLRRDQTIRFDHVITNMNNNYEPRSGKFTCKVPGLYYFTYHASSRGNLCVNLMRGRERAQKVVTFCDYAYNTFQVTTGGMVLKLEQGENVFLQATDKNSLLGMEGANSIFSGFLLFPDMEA
Chain of human C1q (Quidel) (human) (P02747 29-245, chain 3 of 3, further chain): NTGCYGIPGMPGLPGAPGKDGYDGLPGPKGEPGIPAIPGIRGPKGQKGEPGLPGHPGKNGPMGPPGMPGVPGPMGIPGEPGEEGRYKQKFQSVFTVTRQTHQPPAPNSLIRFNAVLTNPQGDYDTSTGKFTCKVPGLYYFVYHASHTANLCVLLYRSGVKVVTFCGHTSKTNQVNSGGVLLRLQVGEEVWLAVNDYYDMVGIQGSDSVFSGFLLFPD

CDC (% of wild type) [2]: 108
percentage of the wild type [3]: 102%
Substance: C2B8 K320A (antibody)

CDC [2]: 2 fold
fold better binding than wild type [1]: > 3 fold
Substance: C2B8 K326A-E333A (antibody)

fold increase in binding against wild type [1]: > 2 fold
Substance: C2B8 K326D (antibody)

fold increase in binding against wild type [1]: > 2 fold
Substance: C2B8 K326E (antibody)

fold increase in binding against wild type [1]: 5 fold
fold increase in binding against wild type [5]: > 2 fold
Substance: C2B8 K326W (antibody)

fold lower binding than wild type [1]: 60 fold
percentage of the wild type [3]: 103%
Substance: C2B8 P331A (antibody)

ratio to native IgG1 [9]: 0.15
Substance: anti-IgE E27 IgG1 Asn297Ala (antibody)

ratio to native IgG1 [10]: 0.08
ratio to native IgG1 [11]: 0.54
Substance: anti-IgE E27 IgG1 Glu233Pro/Leu234Val/Leu235Ala/Gly236deleted (antibody)

ratio of binding of the variant to that of native IgG1 (ratio (variant/native IgG1)) [13]: 0.06
Substance: anti-IgE E27 IgG1 variant Asp270Ala (antibody)

Continued, substance first:

Substance: C2B8 (human IgG1 constant region) A327 changed to glycine (antibody)
increase in binding against wild type [1]: 50%

Substance: C2B8 E318A (antibody)
CDC (% of wild type) [2]: 108
decrease in binding against wild type [1]: 30%
percentage of the wild type [3]: 89%

Substance: C2B8 E333A (antibody)
increase in binding against wild type [1]: 30%

Substance: C2B8 E333S (antibody)
fold increase in binding against wild type [1]: > 2 fold
fold increase in binding against wild type [4]: 2 fold

Substance: C2B8 K326A (antibody)
increase in binding against wild type [1]: 30%

Substance: C2B8 K326M (antibody)
fold increase in binding against wild type [1]: > 2 fold

Substance: C2B8 K326M-E333S (antibody)
CDC [2]: 2 fold
fold better binding than wild type [1]: > 3 fold

Substance: C2B8 P329A (antibody)
percentage of the wild type [3]: 112%

Substance: E27 IgG1 variant K320(339)R (IG2 172) (antibody)
ratio to native IgG1 [6]: 0.68
ratio to native IgG1 [7]: 0.66
ratio to native IgG1 [8]: 0.71

Substance: E27 IgG1 variant K320(339)R (IG2 235) (antibody)
ratio to native IgG1 [6]: 0.86
ratio to native IgG1 [7]: 0.95
ratio to native IgG1 [8]: 1.24

Substance: E27 IgG1 variant S267(280)T (antibody)
ratio to native IgG1 [6]: 0.05

Substance: anti-IgE E27 IgG1 Pro329Ala (antibody)
percentage of the wild type [12]: 96%

Substance: anti-IgE E27 IgG1 variant S298(317)V (antibody)
ratio of binding, variant/native IgG1 (mean) [14]: 0.11

Substance: anti-p185HER2 IgG1 variant Ser298Ala/Glu333Ala/Lys334Ala (antibody)
ADCC, NK cells of Phe158/Phe158 donors [15]: > 100%
